Sequences and labels used below:
B1: POU domain, class 5, transcription factor 1, residues 134 to 212; numbered along this chain, Q01860 (parent)
chain: EESQDIKALQKELEQFAKLLKQKRITLGYTQADVGLTLGVLFGKVFSQTTICRFEALQLSFKNMCKLRPLLQKWVEEAD

± gives the uncertainty stated by the source.

In this data set the parent is B1. The data set can be described thus: abundance fitness (aPCA) (normalised: wild type 0, dead -1); higher = more abundant; growth selection in yeast, the domain comes from the species named. Conditions: Homo sapiens.
In the case of V75D, the abundance fitness is -0.413 ± 0.3.
For V75R, the abundance fitness is -0.661 ± 0.25.
Turning to V75S, the abundance fitness was -0.106 ± 0.24.
V75A: the abundance fitness is -0.815 ± 0.32.
The figure for V75M is -0.293 ± 0.23; for F42N it is -0.191 ± 0.2.
On to F42D, for which the abundance fitness was -0.481 ± 0.31.
Consider F42R, for which the abundance fitness is -0.627 ± 0.076.
In the case of F42V, the abundance fitness amounted to 0.127 ± 0.046.
Consider F42C, for which the abundance fitness was determined as 0.092 ± 0.15.
For the variant F42A, the abundance fitness was -0.014 ± 0.054.
Turning to F42L, the abundance fitness was -0.469 ± 0.081.
As to Q72P, the abundance fitness is -0.438 ± 0.21.
For Q72D, the abundance fitness was -0.379 ± 0.24.
For Q72W the value was -0.837 ± 0.31; for Q72I, -0.119 ± 0.3; for Q72C, -0.09 ± 0.17.
As to E1K, the abundance fitness is -0.034 ± 0.24.
For E1W the value was -0.244 ± 0.33.
On to Y29W, for which the abundance fitness is -0.472 ± 0.18.
As to Y29M, the abundance fitness came out at 0.18 ± 0.12.
The figure for Y29H is 0.148 ± 0.21.
For Y29Q the value was 0.068 ± 0.19; for Y29R, -0.383 ± 0.096; for Y29D, -0.422 ± 0.31.
Turning to Y29L, the abundance fitness was -0.055 ± 0.094.
For W74E the value was -0.138 ± 0.34; for W74D, -0.447 ± 0.28.
For K18G the value was -0.147 ± 0.12; for K18A, 0.021 ± 0.11; for K18F, -0.268 ± 0.44.
For K18T, the abundance fitness is 0.074 ± 0.13.
The figure for L59P is -0.312 ± 0.37.
As to L59G, the abundance fitness is -0.432 ± 0.11.
L59T: the abundance fitness is -0.533 ± 0.46.
With L59C, the abundance fitness turned out to be 0.009 ± 0.28.
As to L59E, the abundance fitness was 0.101 ± 0.17.
The figure for L70F is 0.145 ± 0.26.
L70G: the abundance fitness is -0.574 ± 0.2.
For the variant L70C, the abundance fitness is -0.171 ± 0.29.
As to L70Q, the abundance fitness was 0.143 ± 0.29.
Turning to T30H, the abundance fitness was -0.437 ± 0.44.
In the case of T30E, the abundance fitness was -1.06 ± 0.48.
With T30V, the abundance fitness was -0.392 ± 0.12.
The figure for G28K is -0.569 ± 0.34; for G28N it is -0.34 ± 0.42; for G28Q it is -0.389 ± 0.2.
Turning to G28H, the abundance fitness amounted to 0.386 ± 0.21.
Turning to L67R, the abundance fitness is -0.575 ± 0.12.
As for L67W, the abundance fitness was -0.851 ± 0.26.
With L67C, the abundance fitness was -0.363 ± 0.27.
Turning to L67E, the abundance fitness is -0.289 ± 0.17.
As to L67S, the abundance fitness was -0.608 ± 0.22.
Regarding E12V, the abundance fitness is -0.065 ± 0.097.
Regarding E12Y, the abundance fitness is -0.4 ± 0.31.
For E12L the value was -0.312 ± 0.12; for E12I, -0.112 ± 0.29; for V34T, -0.797 ± 0.47.
On to V34A, for which the abundance fitness was -0.742 ± 0.29.
The figure for V34P is 0.101 ± 0.2; for V34R it is -0.637 ± 0.2; for F16A it is -0.191 ± 0.32.
As to F16R, the abundance fitness was -0.394 ± 0.15.
The figure for S47K is -0.597 ± 0.48; for S47E it is -0.228 ± 0.2; for L71T it is -0.246 ± 0.16.
In the case of L71V, the abundance fitness was -0.728 ± 0.17.
On to R68S, for which the abundance fitness is -0.535 ± 0.25.
Turning to R68E, the abundance fitness was -0.421 ± 0.26.
Consider R68G, for which the abundance fitness is -0.797 ± 0.23.
Take R68K: the abundance fitness was -0.154 ± 0.2.
With R68A, the abundance fitness is -0.265 ± 0.14.
The figure for R68W is 0 ± 0.11; for R68V it is -0.609 ± 0.18.
Consider R68L, for which the abundance fitness was -0.222 ± 0.1.
Take R68T: the abundance fitness is -0.436 ± 0.19.
The figure for E14W is -0.367 ± 0.15.
Take E14T: the abundance fitness was -0.352 ± 0.16.
On to E14K, for which the abundance fitness stood at 0.267 ± 0.14.
Regarding E14I, the abundance fitness was 0.14 ± 0.15.
E14Y: the abundance fitness amounted to 0.076 ± 0.2.
For E14G the value was -0.033 ± 0.13.
For A56T, the abundance fitness was -0.243 ± 0.24.
For A56R, the abundance fitness was -0.492 ± 0.17.
For the variant A56G, the abundance fitness is -0.06 ± 0.076.
A56H: the abundance fitness is -0.245 ± 0.21.
The figure for V45L is -0.338 ± 0.12.
As for V45G, the abundance fitness was -0.153 ± 0.043.
V45M: the abundance fitness is -0.122 ± 0.21.
As to V45D, the abundance fitness is -0.28 ± 0.13.
As to C65G, the abundance fitness is -0.691 ± 0.12.
As to C65D, the abundance fitness is 0.155 ± 0.16.
Turning to K21G, the abundance fitness is -0.707 ± 0.18.
Regarding K21A, the abundance fitness was -0.392 ± 0.19.
For the variant T49N, the abundance fitness is -0.111 ± 0.24.
For the variant T49A, the abundance fitness amounted to 0.02 ± 0.11.
For the variant T49E, the abundance fitness is 0.186 ± 0.11.
The figure for A8E is -0.08 ± 0.4.
Turning to A8L, the abundance fitness is -0.318 ± 0.38.
Consider L20E, for which the abundance fitness was -0.313 ± 0.24.
On to L20S, for which the abundance fitness is -0.399 ± 0.25.
For the variant K44Y, the abundance fitness is -0.489 ± 0.44.
In the case of K44P, the abundance fitness is -0.3 ± 0.15.
On to A17T, for which the abundance fitness is 0.228 ± 0.38.
L27H: the abundance fitness is -0.387 ± 0.41.
L27D: the abundance fitness is -0.185 ± 0.25.
Regarding L27M, the abundance fitness was -0.188 ± 0.19.
As to L27V, the abundance fitness is -0.588 ± 0.14.
Consider L27I, for which the abundance fitness was -0.051 ± 0.49.
Consider L27E, for which the abundance fitness was -0.842 ± 0.28.
With L27Q, the abundance fitness is -0.602 ± 0.24.
With L27C, the abundance fitness stood at 0.039 ± 0.19.
As for F54Q, the abundance fitness was -0.891 ± 0.47.
F54K: the abundance fitness is -0.662 ± 0.42.
For F54P the value was -0.719 ± 0.4.
For F54R, the abundance fitness was -0.621 ± 0.12.
On to F54W, for which the abundance fitness is -0.797 ± 0.22.
Take F54M: the abundance fitness is -0.535 ± 0.24.
With F54A, the abundance fitness is -1.13 ± 0.5.
For K62R the value was -0.143 ± 0.083.
For K62H the value was -0.19 ± 0.36.
Consider K62E, for which the abundance fitness stood at 0.038 ± 0.15.
Regarding K62S, the abundance fitness came out at 0.041 ± 0.13.
In the case of K62I, the abundance fitness was -0.238 ± 0.4.
As for K62D, the abundance fitness amounted to 0.201 ± 0.17.
Consider K62M, for which the abundance fitness is 0.192 ± 0.23.
Take Q31P: the abundance fitness came out at 0.133 ± 0.14.
As for Q31G, the abundance fitness was -0.402 ± 0.16.
As for Q31F, the abundance fitness was -0.009 ± 0.29.
Q31C: the abundance fitness was 0.266 ± 0.18.
For Q31V, the abundance fitness was -0.679 ± 0.21.
The figure for L9Y is -0.164 ± 0.24; for L9F it is -0.316 ± 0.29.
For L9G, the abundance fitness is -0.127 ± 0.07.
The figure for L9W is -0.254 ± 0.087.
Take L9K: the abundance fitness turned out to be 0.28 ± 0.11.
Regarding L9N, the abundance fitness is -0.086 ± 0.22.
Consider Q15E, for which the abundance fitness is 0.07 ± 0.15.
As to Q15T, the abundance fitness is -0.329 ± 0.23.
In the case of Q15A, the abundance fitness is 0.127 ± 0.12.
On to Q15C, for which the abundance fitness was -0.218 ± 0.2.
The figure for D79A is -0.741 ± 0.25; for D79R it is -0.187 ± 0.18.
For D79G the value was -0.312 ± 0.13.
Regarding D79T, the abundance fitness was -0.122 ± 0.21.
As to L41A, the abundance fitness is -0.695 ± 0.38.
For L41G the value was -0.934 ± 0.31.
In the case of L41T, the abundance fitness was -0.04 ± 0.35.
For I6S the value was -0.054 ± 0.14; for I6Q, 0.063 ± 0.14; for I6V, -0.749 ± 0.2.
On to I6M, for which the abundance fitness is 0.1 ± 0.12.
As for I6N, the abundance fitness is -0.082 ± 0.23.
For I6A the value was 0.005 ± 0.085; for G39H, -0.441 ± 0.39.
On to G39D, for which the abundance fitness was -0.852 ± 0.42.
For G39A the value was -0.534 ± 0.19.
G39S: the abundance fitness is -0.006 ± 0.092.
As for L36Y, the abundance fitness is -0.037 ± 0.32.
As for L36F, the abundance fitness is 0.013 ± 0.26.
For L36I the value was 0.311 ± 0.2; for K11I, 0.062 ± 0.33; for K11G, -0.168 ± 0.089.
Consider K11Q, for which the abundance fitness was found to be 0.057 ± 0.17.
For K11D the value was 0.168 ± 0.35; for K11S, 0.019 ± 0.12; for K11M, 0.076 ± 0.14.

For the origin of these results see the Human Domainome abundance scans (Beltran et al. 2025).
